Source: patent US20240041978A1, “LA PROTEIN AS A NOVEL REGULATOR OF OSTEOCLASTOGENESIS” (The U.S.A., as Represented by the Secretary, Department of …, priority 2021, published 2024)
Entries after “also recorded” stand apart in the source; their conditions may differ. One block for each molecule: values may come before it. Peptide text beside a SMILES is read from it. * marks the point of attachment. Cbz = O=C(OCc1ccccc1)*; CH2F = FC*

Legend:
[1] = system: human monocyte-derived osteoclasts; assay: Osteoclast fusion assay (number of fusion events, fluorescence microscopy); assay type: cell-based; settings: for osteoclast multinucleation / fusion: screen of La 188-375 peptide library, control no addition; for formation of multinucleated syncytia (osteoclast fusion): recombinant protein ~40 nM added end of day 2 post-RANKL, overnight
Procedure: Osteoclasts: Elutriated monocytes from healthy donors were obtained. Cells were plated at 2.9×10^5 per cm^2 in 35 mm dishes with polymer coverslip bottoms (Ibidi #81156) for imaging or 35 mm or 10 cm dishes for biochemical experiments in complete media [α-MEM supplemented with 10% Fetal Bovine Serum (FBS) and penicillin-streptomycin-L-glutamine (Gibco Invitrogene #12571063; #26140079 and #10378016, respectively)]. Monocytes were differentiated to M2 macrophages in the presence of 100 ng/ml M-CSF for 6 days and then differentiated with 100 ng/ml M-CSF and 100 ng/ml RANKL for 3 days unless indicated otherwise. RAW 264.7 cells (ATCC, Manassas, VA, #TIB-71) were maintained in DMEM supplemented with 10% FBS to a maximum of 8 passages. RAW 264.7 cells were differentiated to osteoclasts in the presence of 100 ng/ml murine RANKL for 5 days. To separate unfused mononucleated and fused, multinucleated RAW 264.7 cells into separate fractions, advantage was taken of the much stronger adherence of multinucleated cells to culture dish plastic. After washing in PBS, mixed RAW cultures (following RANKL differentiation) were left in Ca^2+ and Mg^2+ free PBS for 10 minutes at room temperature. Culture dishes were then tapped on the lab bench and a large portion of unfused, mononucleated RAW cells were released, and these released cells were collected via centrifugation. This process was repeated 2-4 times until dishes were left with a population of primarily fused, multinucleated syncytia. Mononucleated and multinucleated cell fractions were then processed for biochemical or imaging experiments as described below.
Constructs & Recombinant proteins & Transfection: Recombinant La 1-408, 1-375, 1-375 Q20A_Y24A_D33I, 1-187 and 188-375 were amplified with primers designed with overlapping sequences and inserted between NdeI/HindIII in the V78 pET28A E. coli expression vector, adding to each a N-terminal 6×his affinity tag. La 1-408 was expressed as a recombinant protein in E. coli and purified using IMAC columns by SD Biosciences (San Diego, CA). The remaining constructs were transformed into BL2 (DE3) chemically competent E. coli (Thermo Fisher Scientific) and protein expression was induced with IPTG. Cells were lysed with Bugbuster (Sigma), and 6×his-La proteins were affinity purified using HisPur Cobalt Spin columns (Thermo Fisher Scientific), each according to the manufacturer's instructions. Endotoxin contaminates were depleted from affinity purified 6×his-La proteins using Pierce high-capacity endotoxin removal columns (Thermo Fisher Scientific), according to the manufacturer's instructions. Proteins were then sterile filtered, aliquoted and kept at −80 C.
Plasmids were introduced into primary osteoclasts at day 2 of RANKL stimulation via jetPRIME (Polyplus Transfection). FLAG-La 1-408, FLAG-La 1-375 and FLAG-La 1-375 Q20A_Y24A_D33I plasmids were a gift of the Maraia Lab (NICHD). Briefly, SSB (UniProt P05455) was inserted between HindIII and BamHI the pFLAG-CMV2 vector (Sigma). “Uncleavable” La was produced by taking the FLAG-La 1-408 plasmid and making two point mutations at amino acids D371A and D374A, abrogating the caspase cleavage sites at the C-terminal region of the protein (Emory Integrated Genomics Core). siRNA were introduced into primary osteoclasts after 1 day of RANKL stimulation via Lipofectamine RNAiMAX (Thermo Fisher Scientific). Non-targeted (Cat #4390843) and SSB-targeted (Cat #4392420_ID:s13469) siRNA were introduced at a concentration of 5 ng/ml (Silencer Select, Ambion).
Fusion Assays: Osteoclast fusion in the culture systems was evaluated by fluorescence microscopy (Verma et al., J Biol Chem 293, 254-270, doi:10.1074/jbc.M117.809681 (2018)). Briefly, cells were fixed with 4% paraformaldehyde at timepoints of interest, permeabilized with 0.1% TRITON™ X-100 and blocked with 5% FBS. Cells were then stained with phallodin-ALEXAFLURO®488 and Hoechst to label cells' actin cytoskeleton and nuclei, respectively. […]

[2] = system: production of LMW La in human osteoclasts; assay: La cleavage and localization in differentiating osteoclasts with caspase inhibitor (Western blot, immunofluorescence); assay type: cell-based; settings: for production of LMW (cleaved) La: Western blot, differentiating human osteoclasts, Day 3-4 post-RANKL
Procedure: To identify the functional form of La associated with osteoclastogenesis, the relationship was determined between the appearance of LMW La and fusion between osteoclasts. During apoptotic progression human La is cleaved by caspases at […], removing La's NLS (Rutjes et al., Cell Death Differ 6, 976-986, doi:10.1038/sj.cdd.4400571 (1999); Ayukawa et al., J Biol Chem 275, 34465-34470, doi:10.1074/jbc.M003673200 (2000)).
Biochemical approaches: Cells were lysed on ice via pulse sonication and rotated end over end at 4° C. for 45 minutes in the presence of protease inhibitors (cOmplete, Sigma, #118361700010). Steady-state protein levels were evaluated via SDS-PAGE followed by immunoblotting. Bulk proteins were evaluated via SDS-PAGE followed by silver stain (SilverQuest, Thermo Fisher Scientific). Bands of interest were cut from silver stained gels, destained and evaluated by liquid chromatography coupled with tandem mass spectrometry (Proteomics Core, NHLBI). The selective enrichment of cytosolic vs membrane associated protein fractions was carried out using MEM-PER™ Plus Membrane Protein Extraction Kit (Thermo Fisher Scientific, catalogue #89842) according to the manufacturer's instructions.
Fluorescence Microscopy Imaging: In the immunofluorescence experiments the cells were washed with PBS and fixed with warm freshly prepared 4% formaldehyde in PBS (Sigma, F1268) at 37° C. The cells were washed three times with PBS. To permeabilize the cells, they were incubated for 5 min in 0.1% TRITON™ X100 in PBS. The cells were again washed three times with PBS and placed into PBS with 10% FBS, for 10 min at the room temperature to suppress non-specific binding. Then the cells were incubated with primary antibodies for 1 hour in PBS with 10% FBS. […]

[3] = target: T1, Anx A5 on PS containing liposomes (Homo sapiens, UniProt P08758); assay: Liposome binding assay
T1 sequence (P08758 1-320): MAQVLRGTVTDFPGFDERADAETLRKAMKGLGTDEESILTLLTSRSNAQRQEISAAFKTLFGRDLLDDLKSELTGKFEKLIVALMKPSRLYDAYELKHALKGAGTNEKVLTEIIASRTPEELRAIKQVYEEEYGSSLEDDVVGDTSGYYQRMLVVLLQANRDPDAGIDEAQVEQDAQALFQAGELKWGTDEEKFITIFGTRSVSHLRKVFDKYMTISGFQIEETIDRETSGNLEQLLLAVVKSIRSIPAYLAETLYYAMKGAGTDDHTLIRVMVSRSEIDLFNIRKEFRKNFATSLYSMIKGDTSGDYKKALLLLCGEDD
Description: Anx A5 binds to PS containing membranes in a Ca^2+-dependent manner. Recombinant La was introduced alone or along with recombinant Anx A5 to PS containing liposomes and pelleted liposomes by centrifugation to evaluate whether La was enriched with liposomes or in supernatant (FIG. 12C).
Liposome binding assay: Multilamellar liposomes were formed from pure PC or 9:1 (w/w) mixture of PC and PS. Both lipid compositions were supplemented with 0.5 mol % of lissamine rhodamine phosphatidylethanolamine. To prepare liposomes, lipid stock in benzene/methanol (95:5) was frozen in liquid nitrogen and freeze-dried overnight using SPEEDVAC™ (Savant). Dried lipid was resuspended in aqueous buffer (100 mM NaCl, 10 mM Hepes, pH 7.0) at 1 mM total lipid concentration and vortexed. Proteins and CaCl2 were added to the liposomes and the mixtures were incubated on ice for 30 minutes. To pellet, liposomes were centrifugated at 15,000 g for 20 minutes to pellet, based on rhodamine fluorescence ˜95% of liposomes. Centrifugated samples were then fractionated into a top, liposome-depleted fraction and a bottom fraction containing liposomes and liposome-bound proteins. Fractions were then solubilized via addition of Laemmli buffer (Bio Rad) and separated via SDS-PAGE, as described above. Recombinant La and recombinant Anx A5 were detected via their n-terminal 6×His tag via α-6×His antibody (Abcam) and signals for soluble vs liposome bound protein fractions were evaluated via densitometry. Data were presented as a percentage of protein signal bound to liposomes where: […]

Molecule: COC(=O)C[C@H](NC(=O)[C@H](C)NC(=O)[C@@H](NC(=O)OCc1ccccc1)C(C)C)C(=O)CF [z-VAD, z-VAD-fmk] (Cbz-Val-Ala-Asp(OMe)-CH2F)
ability of osteoclasts to form multinucleated syncytia ([1]; pan caspase inhibitor vs vehicle, Day 3 post-RANKL): significantly perturbed
production of LMW (cleaved) La [2]: blocked
production of LMW (cleaved) La ([2]; listed as z-VAD-fmk): block the production of cleaved La
localization of FL La ([2]; α-FL La immunofluorescence, Day 3): premature retention of FL La within the nuclei

Molecule: AKLRAKQEQEAKQKLEEDAEMKSLEEKIGC (inhibitory La peptide) [Peptide 2]
osteoclast multinucleation / fusion [1]: inhibit fusion and the formation of multinucleated osteoclasts; also recorded: specifically inhibit

pelleting with liposomes ([3]; PS containing liposomes, La with Anx A5, Ca^2+): pelleted with liposomes
pelleting with liposomes ([3]; liposomes lacking PS): neither La nor Anx A5 pelleted
Molecule: Anx A5: recombinant annexin A5, PS-binding peripheral membrane protein [reference compound]

Molecule: GEVEKEALKKIIEDQQESLNKWKSKGRRFK (inhibitory La peptide) [Peptide 9]
osteoclast multinucleation / fusion [1]: inhibit fusion and the formation of multinucleated osteoclasts; also recorded: specifically inhibit

B1: La 1-187: recombinant N-terminal half of La 1-375 (protein, UniProt P05455 1-187, looked up, fragment)
chain: MAENGDNEKMAALEAKICHQIEYYFGDFNLPRDKFLKEQIKLDEGWVPLEIMIKFNRLNRLTTDFNVIVEALSKSKAELMEISEDKTKIRRSPSKPLPEVTDEYKNDVKNRSVYIKGFPTDATLDDIKEWLEDKGQVLNIQMRRTLHKAFKGSIFVVFDSIESAKKFVETPGQKYKETDLLILFKDD
formation of multinucleated syncytia (osteoclast fusion) [1]: no effect

B2: La 188-375: recombinant amino acids 188-375 of human La (protein, listed as Homo sapiens)
chain: YFAKKNEERKQNKVEAKLRAKQEQEAKQKLEEDAEMKSLEEKIGCLLKFSGDLDDQTCREDLHILFSNHGEIKWIDFVRGAKEGIILFKEKAKEALGKAKDANNGNLQLRNKEVTWEVLEGEVEKEALKKIIEDQQESLNKWKSKGRRFKGKGKGNKAAQPGSGKGKVQFQGKKTKFASDDEHDEHDE
formation of multinucleated syncytia (osteoclast fusion) [1]: greatly promoted
osteoclast multinucleation / fusion [1]: promoted fusion

B3: La 1-408: recombinant full-length human La protein, N-terminal 6×his tag (protein, listed as Homo sapiens)
chain: MAENGDNEKMAALEAKICHQIEYYFGDFNLPRDKFLKEQIKLDEGWVPLEIMIKFNRLNRLTTDFNVIVEALSKSKAELMEISEDKTKIRRSPSKPLPEVTDEYKNDVKNRSVYIKGFPTDATLDDIKEWLEDKGQVLNIQMRRTLHKAFKGSIFVVFDSIESAKKFVETPGQKYKETDLLILFKDDYFAKKNEERKQNKVEAKLRAKQEQEAKQKLEEDAEMKSLEEKIGCLLKFSGDLDDQTCREDLHILFSNHGEIKWIDFVRGAKEGIILFKEKAKEALGKAKDANNGNLQLRNKEVTWEVLEGEVEKEALKKIIEDQQESLNKWKSKGRRFKGKGKGNKAAQPGSGKGKVQFQGKKTKFASDDEHDEHDENGATGPVKRAREETDKEEPASKQQKTENGAGDQ
modifications: N-terminal 6xHis tag
notes: recombinant full-length human La protein, N-terminal 6×his tag
formation of multinucleated syncytia (osteoclast fusion) [1]: significantly promoted

B4: heat-inactivated La 1-408: recombinant heat-inactivated La 1-408 (protein, UniProt P05455 1-408, looked up)
chain: B3 chain
modifications: full-length heat-inactivated
formation of multinucleated syncytia (osteoclast fusion) [1]: not observed
